# B1: Gly1-2-H4 (antibody, V domains shown)
# VH: QVQLVQSGAEVKKPGSSVKVSCKSSGGTFSSDTINWVRQAPGQGLEWMGWINPNSGGTNYAQKFQGWVTMTRDTSISTAYMELSRLRSDDTAVYYCARESALGGSYPLSFWGQGTLVTVSS
# VL: ETTLTQSPGTLSLSPGERATLSCRASQSVSSSYLAWYQQKPGQAPRLLIYGASSRATGIPDRFSGSGSGTDFTLTISRLEPEDSATYYCLQDDSYPLTFGQGTKVEIK
# Biological target: T1, soluble mesothelin (human, UniProt Q13421)
# T1 chain: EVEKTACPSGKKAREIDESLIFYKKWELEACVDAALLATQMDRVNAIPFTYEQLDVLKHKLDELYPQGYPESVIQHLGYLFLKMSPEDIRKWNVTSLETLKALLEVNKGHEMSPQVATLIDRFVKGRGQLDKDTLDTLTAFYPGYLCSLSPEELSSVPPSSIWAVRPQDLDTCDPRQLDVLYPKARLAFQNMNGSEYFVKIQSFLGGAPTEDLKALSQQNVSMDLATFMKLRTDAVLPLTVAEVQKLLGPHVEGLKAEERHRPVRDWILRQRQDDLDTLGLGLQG
# Test: ELISA
binder,measurement,value
B1,binding result,no binding

# From patent US20260337263 (published 2026)
